Results as given in article PMC1092277.
Values belong to the molecule of their own block, whether it stands above or below them.

Key:
[1] = target: GST-Chx10 HD R44A (murine); test: pull-down
[2] = target: GST-Pax6 HD R44A/R53A/R57A (zebrafish); test: pull-down
[3] = target: GST-Pax6 HD (wild type) (zebrafish); test: pull-down
GST-Chx10 HD Q50A = GST-Chx10 HD Q50A (mouse, UniProt Q61412 148-207, Q197A); test: EMSA
GST-Pax6 HD R44A = GST-Pax6 HD R44A (zebrafish, UniProt P26630 229-288, R272A); test: EMSA
GST-Pax6 HD R58A = GST-Pax6 HD R58A (zebrafish, UniProt P26630 229-288, R286A); test: EMSA
GST-Chx10 HD R53A = GST-Chx10 HD R53A (mouse, UniProt Q61412 148-207, R200A); test: EMSA
GST-Pax6 HD N51Q = GST-Pax6 HD N51Q (zebrafish, UniProt P26630 229-288, N279Q); test: EMSA
GST-Pax6 HD R57A = GST-Pax6 HD R57A (zebrafish, UniProt P26630 229-288, R285A); test: EMSA
GST-Chx10 HD R57A = GST-Chx10 HD R57A (mouse, UniProt Q61412 148-207, R204A); test: EMSA
GST-Pax6 HD R53A = GST-Pax6 HD R53A (zebrafish, UniProt P26630 229-288, R281A); test: EMSA
Sequence of GST-Pax6 HD R53A (P26630 229-288 R281A): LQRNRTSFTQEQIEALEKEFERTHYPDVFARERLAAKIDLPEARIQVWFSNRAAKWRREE

Sequence of GST-Pax6 HD R58A (P26630 229-288 R286A): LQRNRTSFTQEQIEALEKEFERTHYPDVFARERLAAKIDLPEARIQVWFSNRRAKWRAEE
Sequence of GST-Pax6 HD R44A (P26630 229-288 R272A): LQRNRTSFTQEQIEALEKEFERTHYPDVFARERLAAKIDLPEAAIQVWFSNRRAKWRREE
Sequence of GST-Chx10 HD R57A (Q61412 148-207 R204A): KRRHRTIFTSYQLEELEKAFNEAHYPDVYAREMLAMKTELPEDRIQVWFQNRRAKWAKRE
Sequence of GST-Chx10 HD R53A (Q61412 148-207 R200A): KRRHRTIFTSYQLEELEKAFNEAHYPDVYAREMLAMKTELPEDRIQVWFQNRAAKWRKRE
Sequence of GST-Pax6 HD N51Q (P26630 229-288 N279Q): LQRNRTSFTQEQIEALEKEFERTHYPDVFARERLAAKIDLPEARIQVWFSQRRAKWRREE
Sequence of GST-Pax6 HD R57A (P26630 229-288 R285A): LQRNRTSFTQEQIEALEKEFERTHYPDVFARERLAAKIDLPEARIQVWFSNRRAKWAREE
Sequence of GST-Chx10 HD Q50A (Q61412 148-207 Q197A): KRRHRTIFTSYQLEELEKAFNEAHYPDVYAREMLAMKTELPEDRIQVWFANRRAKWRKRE

Molecule: Pax6ΔHD (in vitro translated)
percent binding [1]: 50%
percent binding compared with the wild-type HD [2]: < 10%

Molecule: Pax6ΔHD(E112A/E120A/E128A)
percent residual binding [3]: 15%

B1: HDp3 (dsDNA)
DNA 1: GATCCTCTAGATAATGCGATTAGCGTAG
DNA 2: GATCCTACGCTAATCGCATTATCTAGAG
binding result (GST-Chx10 HD Q50A): binds
binding result (GST-Pax6 HD R44A): no binding
binding result (GST-Pax6 HD R58A): binds
binding result (GST-Chx10 HD R53A): no binding
binding result (GST-Pax6 HD N51Q): no binding
binding result (GST-Pax6 HD R57A): binds
binding result (GST-Chx10 HD R57A): binds
binding result (GST-Pax6 HD R53A): no binding

Further lines, results first:

percent binding [3]: 11%
Molecule: Pax6ΔHD(E101A/E112A/E120A/E128A)

percent binding [3]: 5%
Molecule: Pax6ΔHD(E112A/E120A/D123A/E128A)
